According to patent US6692962:

Biological target: wild type (51S) wheat eIF2α (alpha subunit of wheat eukaryotic initiation factor 2) (wheat)
Experiment: cell-based or functional assay

PKR (IPTG-inducible, expressed from recombinant vaccinia virus WR 68K) (from UniProt P19525 2-551) (enzyme)
phosphorylated peIF2α 51S, densitometric analyses of western blots (HeLa cells): 3.8 fold
